# Experimental data reported in article PMC8710476.
Substance,ratio to parent (BD368-2 (class II)),ratio to parent (CB6 (class I)),ratio to parent (REGN10933 (class I))
"SARS-CoV-2 full-length spike, WT D614G, expressed on the cell surface (from UniProt P0DTC2) Alpha (B.1.1.7)",1.3 fold,2.7 fold,–
"SARS-CoV-2 full-length spike, WT D614G, expressed on the cell surface (from UniProt P0DTC2) Beta (B.1.351)",-569 fold,-76.3 fold,-3.2 fold
"SARS-CoV-2 full-length spike, WT D614G, expressed on the cell surface (from UniProt P0DTC2) Gamma (P.1)",–,-266 fold,–
